According to paper PMC5522078, “Discovery and characterization of small molecules targeting the DNA-binding ETS domain of ERG in prostate cancer” (Oncotarget, 2017):

Target: T1, ERG-ETS domain (UniProt P11308 307-400)
T1 sequence: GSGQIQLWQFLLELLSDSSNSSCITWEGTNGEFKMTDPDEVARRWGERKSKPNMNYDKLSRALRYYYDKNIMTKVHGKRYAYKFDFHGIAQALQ
Test: EMSA; no compound; 1 nM DNA; EMSA: protein stored in 20 mM sodium phosphate, 200 mM NaCl, 2 mM DTT, 0.1 mM EDTA, pH 6.5; reaction with 3% glycerol, 0.2 mg/mL BSA, 1 nM dsDNA, room temperature 1 h; 10% native gel run at 10 C
Conditions: protein: recombinant; tags: His6 removed by thrombin; label: Alexa-488; blunt

B1: ETS consensus GGAA probe (dsDNA)
DNA 1: CGGCCAAGCCGGAAGTGAGTG
DNA 2: CACTCACTTCCGGCTTGGCCG
Question: For B1, which Kd is on record?
Answer: Its Kd is ~1 nM.
